Values of other authors as cited in US7897835B2, “Expression vectors pSSA-K and pSSA-H for expression of SOD and APX in plants to provide stress tolerance” (Korea Research Institute of Bioscience and Biotechnology, priority 2004, dated 2011).

Test system: tobacco protoplast
Details: transient assay with GUS protein

B1: SWPA2 promoter: oxidative stress inducible peroxidase promoter isolated from sweetpotato (Ipomoea batatas), SEQ. ID. No 15 (nucleic acid)
DNA: AAGCTTCCATGATCAGATCGATAATACCAAATGGTACCACCTAACTAGGTGATATATATTATGTATGTCATTATTTTAAACTGTATTACAAAGACTATTTTTTCATTAATTGGTACAAAGAAAAATTAAACAGAAAAGAAAGGAAAAAATGACTCACCACCTAGCACCTAGACACCTAGACACCAAGTACCCAAACCCTCTATTTTCAACATCTATTTTCAGATGTAAATATGAGTTGGACGAAGAAGGTGTTAGCAATTATTTGATTAATCTTGCTACGATAATTATGATCCACTCACTTAGTCATTTTTTTCAGACCAAGACAACTAGCTTGAGTTTTTTATTGTATGTGGTCGGAACGTTTTTTGTAATTAAAAAAATAAAAGTTGCATCATTATATATGGTAGATTAAGTAATTGATCAATCAACGTTTAATTTTGCATTTATCGGCAAGGTGGAGGTTCCAACTTCCAGTCGAACTTAGAGAGTCATTGGAGACCTTGACCAGTTAACTAGCGGTGTCGAAAACCTGCACAACTTGAGATTTAATTGCATACCTTTTATATATGACGCGTTTTATTTTTTTTTCCTAGAAAATAATTTGGAAGAAAATAAGAATATGTATTCTGTGAAAGCTAGGCCAAAACGAATGTCTTTTCGTCGTTTTCGTTAAAGGTTTAGATCATATTTCATCTGGTCCAACACTCAAACTTGTATAATGGACGAATTATTAGTCATTTTAGACCTACCGGCTAGCGCGACTTTTTTGTTTTCCATAAAGATTCGATAATTGCATGGCCAGATGCAAAGTTTGAAATTTAATGTTTGCCAAATCCTATCATACACCACAACACATGTCTCAGGGCCAAGTGGCACCAGCAAACATTCCTGTCATAATTAATTTTTTTAATGAGAAGGAGGAAACTCACAGCTATTACTCGAAGGTATATAATATTGAGTAAATCTTACTTTGTGATTCTAGTTGACAAAACACCGCAAGATAAACTATACTAAGTTCAAATCACCTCACCGGGTTGGCTCAGATTGGTTTTTTCAATACAAGAGGGGGTGTGAACTCCCGTGCCGACCTCTTTTGAGGGACAATAATGTACGGTCACGCCAACCTAGCTTGATTTTTTCTGACAAATATATTACTACATATATTACACGGTCAAATAATTAATCAAAAAATAAAAAAAGACCCCAATTAAAGTCCCCAACCACTCTCAAATATTCTATTTAAGGGAAACCTTAGAGGCAATTCATGCATCCTCAACCCCTTCTTCTTCATTTTCTTAATCTTACATTTTCCTTTGACCCTCGAG
modifications: Ipomoea batatas
promoter activity relative to CaMV 35S promoter: at least 30 fold
